Experimental findings from article doi:10.1101/816322 (bioRxiv, 2019) are described below.

Assay [1] concerns the target T1, Flag-tagged Trichoplax adhaerens Bcl-2-like protein 2 (trBcl-2L2) (Trichoplax adhaerens, UniProt A0A1B1IJN9 1-211).
T1 sequence (looked up): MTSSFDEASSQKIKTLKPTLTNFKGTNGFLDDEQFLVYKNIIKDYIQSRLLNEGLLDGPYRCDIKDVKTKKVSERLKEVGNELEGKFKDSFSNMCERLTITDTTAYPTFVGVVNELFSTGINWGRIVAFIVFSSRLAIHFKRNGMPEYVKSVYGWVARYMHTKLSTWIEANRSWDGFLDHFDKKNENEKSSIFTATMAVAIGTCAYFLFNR
The assay can be described thus: FRET or BRET. On the technique in general: Bioluminescence resonance energy transfer reports proximity on the nanometre scale.

For assay [2], the target named is T2, Flag-tagged Trichoplax adhaerens Bcl-2-like protein 1 (trBcl-2L1) (Trichoplax adhaerens, UniProt A0A1B1IJP0 1-215).
T2 sequence (looked up): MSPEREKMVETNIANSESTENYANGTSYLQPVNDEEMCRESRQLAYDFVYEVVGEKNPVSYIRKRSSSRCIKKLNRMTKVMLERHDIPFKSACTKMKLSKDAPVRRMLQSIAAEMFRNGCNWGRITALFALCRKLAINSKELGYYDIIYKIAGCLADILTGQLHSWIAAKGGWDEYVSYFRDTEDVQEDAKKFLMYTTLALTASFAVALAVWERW
As to the kind of experiment: FRET or BRET.

B1: EGFP-tagged Trichoplax adhaerens Bax (trBax, trBcl-2L3) (natural protein, UniProt A0A1B1IJP1 1-241, looked up)
chain: MADFTYVLITRSISTIFSSSCLIAMAHVKSVTSTPTTTTTTTTQSCPRREENLKEIAAESKKLFLDFIADRSAKDGQDQGCISQLTREHNELQIEPTSPTIQVARTIRQIGDELDSDPHLNGLLHKLHVTSSTAYSTFRRVAMRIFQDGQFNWGRIITLFFFGYRLTIRVLSESPIVEMIISWIARFIYEICSFWIAESGGWDAITQYIQQADWKNKYTLGLIAVGVLVTAFVTWQRYNSS
On to B1, for which the FRET efficacy in assay [1] is 1.97%; in assay [2], 5.84%.

B2: EGFP-tagged Trichoplax adhaerens Bak (trBak, trBcl-2L4) (natural protein, UniProt A0A1B1IJN7 1-251, looked up)
chain: MSSTITIAESLENGENNDEQEEANTSRSQFRVTRAQVIRRQLSANPAHLPVSEQEVINETSSIFRSFVVESYQAERDGGIIAEEVRSFADQVQSSSNQTITPSSPTSEIGRHLAQLGDSYSVRFQNEFRLMITHLDINPGTAYRTFAGVARRLFRDGISWRRIVTLMAFGYQIAIDVMRSGVQGFLSRICNFIVRFISGEHIANWIARQGGWRAARYEGLASPGWPAIIGVATAAAASVFGVLWLSGYFRE
Regarding B2, the FRET efficacy in assay [1] amounted to 5.45%; in assay [2] it was 11.2%.
